Experimental data reported in article PMC5433351.

B1: SSR, succinic semialdehyde reductase (Metallosphaera sedula DSM 5348) (protein)
chain: MKAAVLHTYKEPLSIEDVNISQPKAGEVKIKVKATGLCHSDVNVFEGKTPVPPPVVAGHEISGIVEEVGPGVTRVKPGDRVISAFIHPCGKCGNCVAGKENLCETFSQVRLKGVMPDGTSRLSKDGKEIRTFLGGGFAEYAIVGENALTRVPEDMDLEKVAVLGCAGLTGYGAISSSKIEPGDTVAVIGVGGVGLSTIQLLRASGAGRIIAVGTKKWKLDRAMELGATDVVNSKEIDPVKAIKEITGGGPQVVIEAGGNEDTIHMALDSVRIGGKVVLVGLPPATAMIPIRVASIVRGGIEVVGNYGGRPRVDMPKLLELVRQGRYDPSRLVTGRFRLEEINEAVKMLEEGEAIRSLIIP
B2: MCR, malonyl-CoA/succinyl-CoA reductase (Metallosphaera sedula DSM 5348) (protein)
chain: MRRTLKAAILGATGLVGIEYVRMLADHPYIKPTYLAGKGSVGKPYGEIVRWQTVGNVPKEVANQEVKPTDPKLMDDVDIIFSPLPQGAAGPVEEQFAKLGFNVISNSPDHRFDMDVPMIIPEVNPHTVTLIDEQRKRRDWKGFIVTTPLCTAQGAAIPLTPIYQNFKMSGVMITTMQSLSGAGYPGIASLDIVDNALPLGDGYDAKTVKEITRILSEVKRNVQEPGVNEITLDATTHRIATIHGHYEVAYVTFKEDTDVRKVMESMESFKGEPQDLKLPTAPEKPIIVTTQDARPQVFFDRWAGNPPGMSVVVGRLKQVNPRTIRFVSLIHNTVRGAAGGGVLTAELLVEKGYIDKR

Tests used:
Format in all cases: biochemical, Metallosphaera sedula
purified protein = substrate: O=CCCC(=O)O; assay: purified protein; details: NADPH 0.5 mM, MgCl2 5 mM, DTT 5 mM, pH 6.5, 65°C
[1] = substrate: NC(=O)C1=CN([C@@H]2O[C@H](COP(=O)(O)OP(=O)(O)OC[C@H]3O[C@@H](n4cnc5c(N)ncnc54)[C@H](OP(=O)(O)O)[C@@H]3O)[C@@H](O)[C@H]2O)C=CC1; assay: NADPH consumption, spectrophotometric; details: succinyl-CoA as substrate, pH 6.5, 65°C, varied: cofactor
[2] = substrate: CC(C)(COP(=O)(O)OP(=O)(O)OC[C@H]1O[C@@H](n2cnc3c(N)ncnc32)[C@H](O)[C@@H]1OP(=O)(O)O)[C@@H](O)C(=O)NCCC(=O)NCCSC(=O)CCC(=O)O; assay: NADPH consumption, spectrophotometric; details: NADPH 0.5 mM, MgCl2 5 mM, DTT 4 mM, pH 6.5, 65°C

Protein | Km (purified protein) | Vmax (purified protein) | kcat/Km (purified protein) | Km [1] | Vmax [1] | kcat/Km [1] | Km [2] | Vmax [2] | kcat/Km [2]
B1 | 27 µM | 683 µmol/min/mg | 1.6e+07 M⁻¹ s⁻¹ | – | – | – | – | – | –
B2 | – | – | – | 79.2 µM | 13.1 µmol/min/mg | 109000 M⁻¹ s⁻¹ | 191 µM | 15.9 µmol/min/mg | 54500 M⁻¹ s⁻¹
